Laboratory results taken from patent US20130108548A1 (VECT HORUS, published 2013).
Each block holds one molecule with its values, some of them ahead of it. Positions of bridges follow the written chain, without caps; N, C: chain ends. Non-standard residues stand in square brackets, D forms with d. No end group written: not given here.

Assays:
[1] = target: rat LDLR on rat brain capillary endothelial cells (RBCEC) (rat) (UniProt P35952); test: cell-based or functional assay
[2] = target: T1, human low-density lipoprotein receptor fused with RFP, on CHO-hLDLR-RFP cells (human, UniProt P01130 22-860); test: competition on CHO-hLDLR-RFP cells: 10 uM test peptide against 10 uM SEQ ID NO: 17/STag, STag read by FRET
T1 construct: whole, on cells; also called human LDLR; not shown: red fluorescent protein (RFP) fused at the C-term (intracellular end)

[3] = target: mouse LDLR in tissues of wild-type mice (mouse, UniProt P35951 22-862); test: cell-based or functional assay
Sequence of mouse LDLR in tissues of wild-type mice (P35951 22-862): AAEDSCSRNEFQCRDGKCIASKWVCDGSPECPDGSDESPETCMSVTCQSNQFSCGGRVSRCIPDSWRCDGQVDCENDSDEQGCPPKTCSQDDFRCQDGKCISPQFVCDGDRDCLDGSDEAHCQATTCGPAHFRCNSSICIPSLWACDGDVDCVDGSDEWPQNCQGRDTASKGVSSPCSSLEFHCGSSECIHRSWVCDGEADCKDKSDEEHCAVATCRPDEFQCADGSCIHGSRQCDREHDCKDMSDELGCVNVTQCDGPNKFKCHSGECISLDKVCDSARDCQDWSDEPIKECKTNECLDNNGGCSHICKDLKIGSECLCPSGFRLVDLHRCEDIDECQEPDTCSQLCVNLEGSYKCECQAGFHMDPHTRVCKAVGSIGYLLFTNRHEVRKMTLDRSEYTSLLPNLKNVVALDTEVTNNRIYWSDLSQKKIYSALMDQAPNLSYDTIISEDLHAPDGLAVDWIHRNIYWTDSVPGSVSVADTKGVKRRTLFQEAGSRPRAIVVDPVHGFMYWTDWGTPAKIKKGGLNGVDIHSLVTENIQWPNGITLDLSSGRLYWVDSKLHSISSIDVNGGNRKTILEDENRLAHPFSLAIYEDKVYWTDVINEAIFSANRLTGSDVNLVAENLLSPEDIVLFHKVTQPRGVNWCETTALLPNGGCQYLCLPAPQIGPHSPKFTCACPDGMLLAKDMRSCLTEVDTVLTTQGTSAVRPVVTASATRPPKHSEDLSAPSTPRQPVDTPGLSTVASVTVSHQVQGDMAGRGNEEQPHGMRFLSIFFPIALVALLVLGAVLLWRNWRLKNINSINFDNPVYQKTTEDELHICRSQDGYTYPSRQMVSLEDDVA

Sequence of rat LDLR on rat brain capillary endothelial cells (RBCEC) (rat) (P35952 22-879): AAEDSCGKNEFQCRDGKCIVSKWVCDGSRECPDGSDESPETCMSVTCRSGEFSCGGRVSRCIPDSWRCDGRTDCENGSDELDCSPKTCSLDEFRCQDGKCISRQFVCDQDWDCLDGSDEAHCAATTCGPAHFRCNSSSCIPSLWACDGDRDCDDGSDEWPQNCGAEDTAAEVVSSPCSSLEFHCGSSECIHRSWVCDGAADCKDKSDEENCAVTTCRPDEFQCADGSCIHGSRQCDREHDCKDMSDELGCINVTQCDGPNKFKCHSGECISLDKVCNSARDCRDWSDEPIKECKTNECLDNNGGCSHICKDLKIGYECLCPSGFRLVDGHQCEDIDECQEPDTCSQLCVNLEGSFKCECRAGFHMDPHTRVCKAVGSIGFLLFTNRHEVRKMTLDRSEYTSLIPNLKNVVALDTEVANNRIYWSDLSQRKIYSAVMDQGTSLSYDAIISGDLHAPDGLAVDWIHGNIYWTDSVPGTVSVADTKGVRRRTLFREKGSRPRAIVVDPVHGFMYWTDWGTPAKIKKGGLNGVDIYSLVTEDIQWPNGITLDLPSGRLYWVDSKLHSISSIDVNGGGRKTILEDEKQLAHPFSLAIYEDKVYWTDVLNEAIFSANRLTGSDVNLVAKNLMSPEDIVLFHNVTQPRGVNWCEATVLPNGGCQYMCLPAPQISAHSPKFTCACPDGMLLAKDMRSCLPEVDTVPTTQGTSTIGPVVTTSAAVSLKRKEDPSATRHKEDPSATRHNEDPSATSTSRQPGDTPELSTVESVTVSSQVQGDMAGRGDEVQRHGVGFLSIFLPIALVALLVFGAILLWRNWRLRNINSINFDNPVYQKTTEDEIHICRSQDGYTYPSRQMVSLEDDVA

saturation of the transport into the lower compartment of the in-vitro BBB model (WT) (µg per insert) [1]: 4
Molecule: LDL made fluorescent by adsorption of DiI (ligand)

Displacement of the control peptide [2]: 54%
B1: peptide SEQ ID NO: 10 (peptide)
peptide: [dC]MPRLR[dA]C
modifications: disulfide 1-8 (inferred)
notes: also called (D)-cys-Met-Pro-Arg-Leu-Arg-(D)-ala-Cys

peptide concentration in the adrenal glands, LDLR-KO mice compared to wild-type mice, 10 min after intravenous injection [3]: ~2 fold decrease | peptide concentration in the intestine, LDLR-KO mice compared to wild-type mice, 10 min after intravenous injection [3]: ~6 fold decrease | peptide concentration in the liver, LDLR-KO mice compared to wild-type mice, 10 min after intravenous injection [3]: ~5 fold decrease
B2: peptide SEQ ID NO: 5 radiolabelled using tritium (peptide)
peptide: XMXRLRGC
modifications: (D)-pen at 1; Thz at 3; tritiated, by the method of Example IX a tritiated propionyl group on the N-term amine
